Laboratory results published in patent US20250171562A1 (ALK ABELL, published 2025).

Tests used:
[1] = biological target: T1, recombinant human IgE (human, UniProt P01854-1 1-428); experiment: IgE-FcεRIα displacement ELISA
T1 construct: made in-house (ALK); preloaded on immobilised FcεRIα in the displacement ELISA
In short: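 Streptavidin-coated plates carried site-specifically biotinylated recombinant human FcεRIα, loaded with recombinant human IgE at 13 ng/ml. sdAbs in a pM–μM series were added for 1 h, and displaced IgE was washed off. Percent displacement was the signal reduction versus the no-sdAb control, giving EC50 and maximal effect.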

[2] = biological target: T2, biotinylated IgE: FcεRIα complex (UniProt P01854 104-428; P12319 26-205, biotinylated); experiment: yeast display titration, flow cytometry
T2 construct: preformed complex used for yeast display titration and deep mutational scanning; also called IgE-Fc/FcεRIα; IgE-Fc Cε2-Cε4/FcεRIα complex

[3] = biological target: T3, biotinylated IgE Fc (UniProt P01854-1 104-428, biotinylated); experiment: BLI (Octet), IgE Fc on sensor, 1:1 fit
T3 construct: also called IgE Fc (made in-house ALK, Denmark)
Protocol: The biotinylated IgE Fc (made in-house ALK, Denmark) was immobilised on SAX (High precision streptavidin) sensors (FortéBIO) to max 1 nm. The association (240 s) and dissociation (600 s) were measured for the analytes in a serial dilution (from 10 nM to 0.37 nM). Data were subtracted to blank reference sensors exposed to the same serial analyte dilutions, aligned, and analysed in the Octet Data Analysis HT 11.1 Software (FortéBIO) using a 1:1 fitting model.

T3 sequence (P01854 other isoform, or with tags, fused parts or gaps): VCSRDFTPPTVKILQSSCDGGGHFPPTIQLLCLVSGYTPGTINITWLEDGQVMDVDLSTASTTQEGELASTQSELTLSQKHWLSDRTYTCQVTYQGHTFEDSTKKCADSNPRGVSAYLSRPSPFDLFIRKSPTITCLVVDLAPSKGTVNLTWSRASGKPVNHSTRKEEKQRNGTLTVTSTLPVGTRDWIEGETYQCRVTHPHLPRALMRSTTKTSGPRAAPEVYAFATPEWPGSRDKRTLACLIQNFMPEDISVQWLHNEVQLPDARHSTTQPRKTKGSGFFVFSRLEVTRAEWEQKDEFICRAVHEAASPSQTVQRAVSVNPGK
T1 sequence (P01854 other isoform, or with tags, fused parts or gaps): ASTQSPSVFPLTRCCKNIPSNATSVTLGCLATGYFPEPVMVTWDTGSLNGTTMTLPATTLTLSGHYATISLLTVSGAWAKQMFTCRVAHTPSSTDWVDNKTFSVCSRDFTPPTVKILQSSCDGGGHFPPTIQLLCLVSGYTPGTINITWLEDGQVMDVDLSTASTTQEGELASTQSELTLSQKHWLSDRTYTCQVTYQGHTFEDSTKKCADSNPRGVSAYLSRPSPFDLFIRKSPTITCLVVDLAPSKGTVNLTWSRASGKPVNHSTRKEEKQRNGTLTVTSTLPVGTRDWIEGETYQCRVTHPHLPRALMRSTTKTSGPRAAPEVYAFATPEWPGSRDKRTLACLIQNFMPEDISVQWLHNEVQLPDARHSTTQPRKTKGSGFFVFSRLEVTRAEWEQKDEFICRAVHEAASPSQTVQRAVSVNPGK
T2 sequence (P12319 26-205, chain 2 of 2): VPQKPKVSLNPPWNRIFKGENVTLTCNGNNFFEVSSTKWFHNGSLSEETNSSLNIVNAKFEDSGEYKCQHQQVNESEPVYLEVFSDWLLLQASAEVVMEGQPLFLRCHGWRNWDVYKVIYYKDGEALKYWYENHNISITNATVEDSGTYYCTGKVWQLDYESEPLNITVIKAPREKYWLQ

EC50 [1]: 800 nM
Max effect [1]: > 95%
apparent Kd (pooled screen) [2]: 0.345 nM
Kd [3]: 0.19 nM
koff [3]: 0.0002 s⁻¹
kon [3]: 1e+06 M⁻¹ s⁻¹
B1: sdAb A1 (VHH)
VHH: EVQLLESGGGLVQPGGSLRLSCAASGFTFGNYDMAWVRQAPGKRPEWVSSIDTGGDITHYADSVKGRFTISRDNAKNTLYLQMNSLRPEDTAVYWCATDEEYALGPNEFDYYGQGTLVTVSS
notes: also called sdAb 026; IGE026
